Results reported in PMC11629607, “Nanobodies against the myelin enzyme CNPase as tools for structural and functional studies” (Journal of Neurochemistry, 2024).

T1: TOM70-EGFP-CNPase-ALFAtag (Mus musculus (assumed))
T1 construct: 2′,3′-cyclic nucleotide 3′-phosphodiesterase (CNPase), catalytic domain; also called TOM70‐EGFP‐CNPase (catalytic domain); CNPase anchored to mitochondria; source: COS-7, co-transfected (pcDNA3.1, synthetic gene), in cells; not shown: TOM70 (anchor to the mitochondrial outer membrane), N-terminal, kept; EGFP, internal (between TOM70 and CNPase), kept
T1 chain: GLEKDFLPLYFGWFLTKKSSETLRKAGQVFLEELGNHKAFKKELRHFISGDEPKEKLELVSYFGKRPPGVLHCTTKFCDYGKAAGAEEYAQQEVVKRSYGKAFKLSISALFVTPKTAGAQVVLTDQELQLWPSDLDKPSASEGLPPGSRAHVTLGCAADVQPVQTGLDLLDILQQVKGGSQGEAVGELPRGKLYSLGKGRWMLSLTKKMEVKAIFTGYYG

B1: anti-CNPase nanobody NbCNP 8D (VHH)
VHH: EVQLEESGGGLVQPGGSLRLSCAASGFTFSSYVMSWVRQAPGKGLEWVSDINSGGSRTYYTDSVKGRFTISRDNAKNTLYLQMNSLKPEDTAVYYCARDSLLSTRYLHTSERGQGTQVTVSS
notes: this construct has a short, extended tail; The batch from the His14-bdSUMO system was used for structural work; also called Nb 8D; source: E. coli SHuffle Express, His14-bdSUMO fusion, purified (Ni2+ beads, eluted by bdSENP1 cleavage)
B2: anti-CNPase nanobody NbCNP 10E (VHH)
VHH: EVQLEESGGGLVQPGGSLRLSCAVSGITLDDFGIGWFRQAPGKEREGVACISPGYEHIYYADSAKGRFTISRDNAKNTVYLQMNNLKPWDTGVYYCAADNDLPDRLWGGSDWSDPSPYDYWGQGTQVTVSS
notes: Purified as described for anti-Arc Nbs (Markusson et al., 2022); source: E. coli, pTH27 vector, purified (SEC, TEV, reverse NiNTA, SEC); not shown: His6, N-terminal, cleaved
B3: anti-CNPase nanobody NbCNP 5E (VHH)
VHH: EVQLLESGGGSVQAGGSLRLSCAASGFTVGDYAIGWFRQAPGQQREAVACISTDDGDTYYADSVKGRFTISSDNAKKTAYLEMNNLKPEDTAVYHCAVDGWDSSCTFYSPSYYRDFSDHGAWGQGTQVTVSS
notes: Extra disulphide between CDR2 and CDR3; also called Nb5E; source: E. coli Shuffle T7, His6-MaBP fusion (pHMGWA), purified (NiNTA, TEV, reverse NiNTA, SEC); not shown: His6, N-terminal, cleaved
B4: anti-CNPase nanobody NbCNP 8C (VHH)
VHH: EVQLEESGGGLVQAGGSLTLSCAASGFTFDDYAMGWYRQAPGKERVGVSCISRTDGYTYYLDSVKGRFTISTDHAKHTVYLQMNNLKPDDTGLYYCAADADPEYGSRCPDPYYGMDYWGKGILVTVSS
notes: Extra disulphide between CDR2 and CDR3; source: E. coli Shuffle T7, His6-MaBP fusion (pHMGWA), purified (NiNTA, TEV, reverse NiNTA, SEC); not shown: His6, N-terminal, cleaved
B5: anti-CNPase nanobody NbCNP 7E (VHH)
VHH: EVQLEESGGGWVHPGGSLRLSCAASGNVFGVNTMAWYRQAPGKQREQRELVASITDYGTTEYADSVKGRFTISGDNAKATVYLQMNSLKPEDTAVYYCNMDLTVMTATSSLYAYDYWGQGTQVTVSS
notes: source: E. coli Shuffle T7, His6-MaBP fusion (pHMGWA), purified (NiNTA, TEV, reverse NiNTA, SEC); not shown: His6, N-terminal, cleaved
B6: MaBP-8D (NbCNP 8D fusion with the intact His6-MaBP) (VHH)
VHH: B1 VHH
B7: MaBP-10E (His6-maltose-binding protein fusion of NbCNP 10E) (VHH)
VHH: B2 VHH
notes: as the VHH of m9; source: E. coli Shuffle T7, pHMGWA vector, purified; not shown: His6, N-terminal, kept
B8: iNbCNP 10E fused to mRuby3 (VHH)
VHH: B2 VHH
notes: as the VHH of m9; also called NbCNP 10E-mRuby3; source: COS-7, co-transfected, in cells; not shown: mRuby3, C-terminal, kept
B9: iNbCNP 5E fused to mRuby3 (VHH)
VHH: B3 VHH
notes: as the VHH of m5; also called NbCNP 5E-mRuby3; source: COS-7, co-transfected, in cells; not shown: mRuby3, C-terminal, kept
B10: iNbCNP 8D fused to mRuby3 (VHH)
VHH: B1 VHH
notes: VHH of NbCNP 8D; also called NbCNP‐8D‐mRuby3; source: COS-7, co-transfected, in cells; not shown: mRuby3, C-terminal, kept

Target: T2, full-length mouse CNPase (Mus musculus (mouse), UniProt P16330)
T2 construct: 2′,3′-cyclic nucleotide 3′-phosphodiesterase (CNPase), mouse, full-length; also called mCNPase; full-length mCNPase; source: E. coli Rosetta (DE3), pTH27 vector, autoinduction, purified (SEC)
Assay: nanoDSF thermal shift (Trp fluorescence); complex prepared by SEC, 2 mg/mL; 20 mM HEPES, 200 mM NaCl, 0.5 mM TCEP, pH 7.5
Details: both partners purified

T2 sequence (P16330 whole entry): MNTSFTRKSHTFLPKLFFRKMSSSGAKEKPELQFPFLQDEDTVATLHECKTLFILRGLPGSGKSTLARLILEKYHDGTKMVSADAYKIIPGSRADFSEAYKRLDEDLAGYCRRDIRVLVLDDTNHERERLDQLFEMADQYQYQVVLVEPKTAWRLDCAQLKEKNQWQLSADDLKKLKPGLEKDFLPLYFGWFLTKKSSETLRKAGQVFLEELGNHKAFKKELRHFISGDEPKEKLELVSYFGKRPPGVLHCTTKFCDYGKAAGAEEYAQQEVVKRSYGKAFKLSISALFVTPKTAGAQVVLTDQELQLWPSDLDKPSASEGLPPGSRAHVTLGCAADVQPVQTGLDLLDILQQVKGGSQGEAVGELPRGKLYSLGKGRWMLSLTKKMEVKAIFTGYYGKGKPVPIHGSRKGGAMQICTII

Binder	∆Tm [°C]
B1	17.7

Target: T2, full-length mouse CNPase
Assay: DSF thermal shift (SYPRO-Orange); full-length CNPase with Nb; 20 mM HEPES, 150 mM NaCl, 0.5 mM TCEP, pH 7.5; 20–95°C; N = 3
Details: both partners purified

Binder	∆Tm [°C]
B2	4.2
B3	17
B4	9.2
B1	18
B5	2.1

Target: T3, mouse CNPase catalytic domain (mouse, UniProt P16330)
T3 construct: 2′,3′-cyclic nucleotide 3′-phosphodiesterase (CNPase), mouse, catalytic (C-terminal phosphodiesterase) domain; As used in ITC, crystallisation and SEC-SAXS; also called mCNPase catalytic domain; C-terminal phosphodiesterase domain; source: E. coli Rosetta (DE3), pTH27 vector, autoinduction, purified (SEC)
Assay: ITC; 8.5–11 μM CNPase catalytic domain in the cell, 88–95 μM Nb in the syringe; 20 mM HEPES, 150 mM NaCl, 0.5 mM TCEP, pH 7.5; +25°C; 1:1 binding model; single experiments
Details: not given

Kd [nM]	dH [kcal/mol]	stoichiometry N	Binder
2.2	-13.8	0.82	B3
0.2	-11	0.837	B6
2.5	-11	0.8	B1

Same assay, conditions: both partners purified

Kd [nM]	dH [kcal/mol]	stoichiometry N	Binder
9.8	-12.1	0.804	B2
13.4	-18.1	0.836	B7
16.6	-7.07	0.914	B4
83.3	-14.2	0.863	B5

Target: T2, full-length mouse CNPase
Assay: enzyme inhibition kinetics (Dixon plot); apparent Ki; 2′,3′-cNADP+ hydrolysis by full-length mCNPase, coupled assay; 100 mM Bis-Tris pH 6.0, 10 mM MgCl2; +25°C
Details: both partners purified

Ki [nM]	Binder
0.604	B2

Target: T1, TOM70-EGFP-CNPase-ALFAtag
Assay: recruitment to a mitochondria-anchored target (co-localisation by confocal microscopy); COS-7 cells co-transfected with TOM70-EGFP-CNPase and an iNb fused to mRuby3; fixed ca. 16 h after transfection; Pearson's correlation, N = 9 cells
Details: partners not purified

binding result	Binder
binds	B8
binds	B9
binds	B10

Target: T3, mouse CNPase catalytic domain
Assay: SEC-SAXS; Nb mixed with the CNPase catalytic domain in 1.3-fold molar excess; 20 mM HEPES, 150 mM NaCl, 0.5 mM TCEP, pH 7.5
Details: not given

stoichiometry N	Binder
1	B3
1	B6
1	B1

Same assay, conditions: both partners purified

stoichiometry N	Binder
1	B4
1	B5
